# Measurements reported in the Human Domainome abundance scans (Beltran et al. 2025).
# ± gives the uncertainty stated by the source.
# B1: Death-inducer obliterator 1, residues 263 to 321; numbered along this chain, Q9BTC0 (parent)
# chain: GYDPNALYCICRQPHNNRFMICCDRCEEWFHGDCVGISEARGRLLERNGEDYICPNCTI
# Variants of: B1
# Assay: abundance fitness (aPCA) (normalised: wild type 0, dead -1); higher = more abundant; growth selection in yeast, the domain comes from the species named
# Details: Homo sapiens
row,Variant,abundance fitness
1,GYDPNALYCICRQPHNNRFMICCDRCEEWFHGDCVGIKEARGRLLERNGEDYICPNCTI,-0.17 ± 0.11
2,GYDPNALYCICRQPHNNRFMICCDRCEEWFHGDCVGIDEARGRLLERNGEDYICPNCTI,0.197 ± 0.081
3,GYDPNALYCICRQPHNNRFMICCDRCEEWFHGDCVGITEARGRLLERNGEDYICPNCTI,0.027 ± 0.071
4,GYDPNALYCICRQPHNNRFMICCDRCEEWFHGDCVGINEARGRLLERNGEDYICPNCTI,-0.245 ± 0.34
5,GYDPNALYCICRQPHNNRFMICCDRCEEWFHGDCVGILEARGRLLERNGEDYICPNCTI,-0.076 ± 0.059
6,GYDPNALYCICRQPHNNRFMICCDRCEEWFHGDCVGIMEARGRLLERNGEDYICPNCTI,0.118 ± 0.12
7,GYDPNALYCICRQPHNNRFMICCDRCEEWFHGDCVGIWEARGRLLERNGEDYICPNCTI,-0.109 ± 0.2
8,GYDPNALYCICRQPHNNRFMICCDRCEEWFHGYCVGISEARGRLLERNGEDYICPNCTI,0.13 ± 0.082
9,GYDPNALYCICRQPHNNRFMICCDRCEEWFHGTCVGISEARGRLLERNGEDYICPNCTI,0.008 ± 0.066
10,GYDPNALYCICRQPHNNRFMICCDRCEEWFHGVCVGISEARGRLLERNGEDYICPNCTI,-0.198 ± 0.054
11,GYDPNALYCICRQPHNNRFMICCDRCEEWFHGWCVGISEARGRLLERNGEDYICPNCTI,-0.237 ± 0.063
12,GYDPNALYCICRQPHNNRFMICCDRCEEWFHGSCVGISEARGRLLERNGEDYICPNCTI,-0.048 ± 0.059
13,GYDPNALYCICRQPHNNRFMICCDRCEEWFHGDCVFISEARGRLLERNGEDYICPNCTI,-0.256 ± 0.12
14,GYDPNALYCICRQPHNNRFMICCDRCEEWFHGDCVYISEARGRLLERNGEDYICPNCTI,-0.066 ± 0.069
15,GYDPNALYCICRQPHNNRFMICCDRCEEWFHGDCVLISEARGRLLERNGEDYICPNCTI,-0.135 ± 0.061
16,GYDPNALYCICRQPHNNRFMICCDRCEEWFHGDCVMISEARGRLLERNGEDYICPNCTI,0.009 ± 0.062
17,GYDPNALYCICRQPHNNRFMICCDRCEEWFHGDCVCISEARGRLLERNGEDYICPNCTI,-0.122 ± 0.092
18,GYDPNALYCICRQPHNNRFMICCDRCEEWFHGDCVPISEARGRLLERNGEDYICPNCTI,-0.425 ± 0.13
19,GYDPNALYCICRQPHNNRFMICCDRCEEWFHGDCVAISEARGRLLERNGEDYICPNCTI,-0.153 ± 0.089
20,GYDPNALYCICRQPHNNRFMICCDRCEEWFHGDCVSISEARGRLLERNGEDYICPNCTI,-0.002 ± 0.058
21,GYDPNALYCICRQPHNNRFMICCDRCEEWFHGDCVRISEARGRLLERNGEDYICPNCTI,-0.072 ± 0.047
22,GYDPNALYCICRQPHNNRFMICCDRCEEWFHGDCVQISEARGRLLERNGEDYICPNCTI,0.013 ± 0.084
23,GYDPNALYCICRQPHNNRFMICCDRCEEWFHGDCVEISEARGRLLERNGEDYICPNCTI,0.057 ± 0.072

row,Variant,abundance fitness
1,GYDPNALYCICRQPHNNRFMICCDRCEEWFHGDCVVISEARGRLLERNGEDYICPNCTI,-0.173 ± 0.059
2,GYDPNALYCICRQPHNNRFMICCDRCEEWFHGDCVIISEARGRLLERNGEDYICPNCTI,-0.15 ± 0.096
3,GYDPNALYCICRQPHNNRFMICCDRCEEWFHGDCVHISEARGRLLERNGEDYICPNCTI,-0.111 ± 0.14
4,GYDPNALYCICRQPHNNRFMICCDRCEEWFHGDCVDISEARGRLLERNGEDYICPNCTI,0.038 ± 0.082
5,GYDPNALYCICRQPHNNRFMICCDRCEEWFHGDCVWISEARGRLLERNGEDYICPNCTI,-0.469 ± 0.1
6,GYDPNALYCICRQPHNNRFMICCDRCEEWFHGDCMGISEARGRLLERNGEDYICPNCTI,-0.043 ± 0.066
7,GYDPNALYCICRQPHNNRFMICCDRCEEWFHGDCKGISEARGRLLERNGEDYICPNCTI,-0.407 ± 0.077
8,GYDPNALYCICRQPHNNRFMICCDRCEEWFHGDCSGISEARGRLLERNGEDYICPNCTI,-0.403 ± 0.069
9,GYDPNALYCICRQPHNNRFMICCDRCEEWFHGDCAGISEARGRLLERNGEDYICPNCTI,-0.058 ± 0.07
10,GYDPNALYCICRQPHNNRFMICCDRCEEWFHGDCWGISEARGRLLERNGEDYICPNCTI,-0.61 ± 0.16
11,GYDPNALYCICRQPHNNRFMICCDRCEEWFHGDCRGISEARGRLLERNGEDYICPNCTI,-0.387 ± 0.07
12,GYDPNALYCICRQPHNNRFMICCDRCEEWFHGDCGGISEARGRLLERNGEDYICPNCTI,-0.333 ± 0.083
13,GYDPNALYCICRQPHNNRFMICCDRCEEWFHGDCDGISEARGRLLERNGEDYICPNCTI,-0.351 ± 0.094
14,GYDPNALYCICRQPHNNRFMICCDRCEEWFHGDCYGISEARGRLLERNGEDYICPNCTI,-0.707 ± 0.12
15,GYDPNALYCICRQPHNNRFMICCDRCEEWFHGDCQGISEARGRLLERNGEDYICPNCTI,-0.183 ± 0.1
16,GYDPNALYCICRQPHNNRFMICCDRCEEWFHGDCFGISEARGRLLERNGEDYICPNCTI,-0.225 ± 0.083
17,GYDPNALYCICRQPHNNRFMICCDRCEEWFHGDCIGISEARGRLLERNGEDYICPNCTI,0.159 ± 0.066
18,GYDPNALYCICRQPHNNRFMICCDRCEEWFHGDCNGISEARGRLLERNGEDYICPNCTI,-0.171 ± 0.099
19,GYDPNALYCICRQPHNNRFMICCDRCEEWFHGDCPGISEARGRLLERNGEDYICPNCTI,-0.345 ± 0.083
20,GYDPNALYCICRQPHNNRFMICCDRCEEWFHGDCTGISEARGRLLERNGEDYICPNCTI,-0.095 ± 0.074
21,GYDPNALYCICRQPHNNRFMICCDRCEEWFHGDCCGISEARGRLLERNGEDYICPNCTI,-0.113 ± 0.12
22,GYDPNALYCICRQPHNNRFMICCDRCEEWFHGDCEGISEARGRLLERNGEDYICPNCTI,-0.602 ± 0.1
